For this test, the target named is full-length human RBBP4 (residues 1–425), recombinant (human, UniProt Q09028 1-425). Put plainly: ITC.

The Kd is the equilibrium constant for the complex coming apart. For orientation: stoichiometry N means a count of units in the complex or per binding partner.

Chain of full-length human RBBP4 (residues 1–425), recombinant (Q09028 whole entry, the tested form may be a part): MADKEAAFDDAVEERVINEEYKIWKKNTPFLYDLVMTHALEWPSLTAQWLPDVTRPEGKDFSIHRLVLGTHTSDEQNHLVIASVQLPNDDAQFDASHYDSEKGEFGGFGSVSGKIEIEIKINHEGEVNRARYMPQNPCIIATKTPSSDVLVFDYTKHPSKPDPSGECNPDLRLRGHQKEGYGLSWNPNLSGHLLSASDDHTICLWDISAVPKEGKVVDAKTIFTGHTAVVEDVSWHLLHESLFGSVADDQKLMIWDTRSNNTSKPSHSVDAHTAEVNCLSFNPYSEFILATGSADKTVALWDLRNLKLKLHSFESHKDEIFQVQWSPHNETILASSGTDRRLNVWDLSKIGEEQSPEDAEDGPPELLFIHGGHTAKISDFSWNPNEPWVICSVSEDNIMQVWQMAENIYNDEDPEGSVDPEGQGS

B1: human PRDM16 peptide (residues 1–12) (peptide)
peptide: MRSKARARKLAK
As to B1, the Kd worked out at 3.15 µM and the “stoichiometry N” value amounted to 1.

B2: human PRDM3 peptide (residues 1–12) (peptide)
peptide: MRSKGRARKLAT
For B2, the Kd amounted to 2.96 µM and the “stoichiometry N” value came out at 1.

These data come from PMC6379669 (Nucleic Acids Research, 2018).
